Legend:
[1] = molecular target: V5His6-tagged polypeptide of human GIPF (GIPFt) (human); experiment: cell-based or functional assay
[2] = molecular target: human wild type, full-length GIPF polypeptide (GIPFwt) (human) (UniProt Q2MKA7); experiment: cell-based or functional assay
UniProt Q2MKA7, sequence (Q2MKA7 21-263 limits assumed): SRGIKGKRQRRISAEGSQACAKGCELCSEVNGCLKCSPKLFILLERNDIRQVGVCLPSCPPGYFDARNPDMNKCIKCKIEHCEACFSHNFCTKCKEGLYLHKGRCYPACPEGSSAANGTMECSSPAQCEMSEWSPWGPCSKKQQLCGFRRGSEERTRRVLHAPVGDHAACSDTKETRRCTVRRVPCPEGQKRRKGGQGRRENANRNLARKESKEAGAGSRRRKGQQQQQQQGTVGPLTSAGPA

V5His6-tagged polypeptide of human GIPF (GIPFt) (human), sequence (chain, as listed by the source limits assumed): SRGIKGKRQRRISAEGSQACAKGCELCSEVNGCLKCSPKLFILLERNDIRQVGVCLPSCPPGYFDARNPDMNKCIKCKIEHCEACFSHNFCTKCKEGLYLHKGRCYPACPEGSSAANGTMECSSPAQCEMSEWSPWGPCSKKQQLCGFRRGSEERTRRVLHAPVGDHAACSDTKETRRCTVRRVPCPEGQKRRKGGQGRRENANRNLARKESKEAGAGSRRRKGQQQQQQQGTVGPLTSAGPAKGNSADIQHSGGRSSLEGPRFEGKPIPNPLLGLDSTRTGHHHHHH

N-terminal sequence analysis of protein from HEK293 cells; ratio of mature to dominant mature forms (ratio mature:dominant mature) [1]: 0.5
N-terminal sequence analysis of protein from HEK293 cells; ratio of mature to dominant mature forms (ratio mature:dominant mature) [2]: 0.5
Substance: furin protease (from UniProt P09958 108-794) (enzyme)
